Laboratory results published in patent publication US20180362660A1 (published 2018).

Legend:
[1] = molecular target: T1, human penumbra protein (hpen) (human, UniProt Q86UF1 1-283); assay: flow cytometry on human blood mononuclear cells, FITC-conjugated mAb
T1 construct: whole, on cells; Untagged; also called BaF3/hpen; tetraspanin 33
T1 sequence (looked up): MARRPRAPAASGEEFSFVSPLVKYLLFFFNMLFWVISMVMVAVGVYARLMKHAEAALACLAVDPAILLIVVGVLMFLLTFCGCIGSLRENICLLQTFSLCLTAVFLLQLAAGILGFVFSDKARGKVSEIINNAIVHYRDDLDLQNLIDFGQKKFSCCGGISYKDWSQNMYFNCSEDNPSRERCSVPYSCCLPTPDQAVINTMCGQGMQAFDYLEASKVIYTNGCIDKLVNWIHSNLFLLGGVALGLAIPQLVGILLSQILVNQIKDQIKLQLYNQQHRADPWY

[2] = molecular target: T2, mouse penumbra protein (mpen), native, on primary mouse B lymphocytes (mouse, UniProt Q8R3S2 1-283); assay: flow cytometry on Balb/C mouse bone marrow cells, FITC-conjugated mAb
T2 construct: whole, on cells; This form has no tag, unlike m5; also called cell surface pen
T2 sequence (looked up): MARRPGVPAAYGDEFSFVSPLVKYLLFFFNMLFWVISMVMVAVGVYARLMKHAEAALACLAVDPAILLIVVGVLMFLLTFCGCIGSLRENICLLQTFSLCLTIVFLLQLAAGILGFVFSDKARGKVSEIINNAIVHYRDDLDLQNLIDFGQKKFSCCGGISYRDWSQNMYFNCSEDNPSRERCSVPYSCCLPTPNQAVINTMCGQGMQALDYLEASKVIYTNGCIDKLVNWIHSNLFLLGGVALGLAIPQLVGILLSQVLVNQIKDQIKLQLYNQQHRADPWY
Protocol: Flow cytometry data were analyzed using FloJo v.10 software. The number in each quadrant denotes %. FIG. 5A: A dot plot of isotype-PE vs. isotype-FITC. FIG. 5B: A dot plot of isotype-PE vs. A296.2-FITC. FIG. 5C: Anti-CD19-PE vs. isotype-FITC. […] FIG. 5E: Anti-B220-PE vs. isotype-FITC. […] FIG. 5G: Anti-CD20-PE vs. isotype-FITC. […] FIG. 5I: Anti-CD138-PE vs. isotype-FITC. […] FIG. 5K: Anti-CD117-PE vs. isotype-FITC. […] FIG. 5M: TER119-PE vs. isotype-FITC. […] FIG. 5O: Anti-Mac-1-PE vs. isotype-FITC. […] Data shown were lymphocyte-gated.
(§1) The medium used for cell staining was Hank's Balanced Salt Solution (HBSS) supplemented with heat-inactivated FBS (5% vol/vol) and sodium azide (0.09% wt/vol). This solution is known as “H5FAH”. All staining and washing were performed at 4° C. The flow cytometer used was a DxP flow cytometer with CYTOTEK™ upgrade (Cytotek). Analysis of flow cytometry data was performed using FLOWJO™ v. 9 (FIG. 3 only) or v.10 (Beckton-Dickinson)(BD). Fluorescence microscopy was performed using a microscope equipped with a digital camera.

[3] = molecular target: T3, mouse penumbra protein (mpen) fused to a C-terminal Myc-Hisx6 tag, on BaF3/mpen cells (mouse, UniProt Q8R3S2 1-283); assay: flow cytometry, hybridoma supernatant on live BaF3/mpen, GAMIgs-FITC detection
T3 construct: whole, on cells; Stably expressed in the pen-negative mouse pre-B cell line BaF3; also called cell-surface pen; tetraspanin 33; not shown: Myc-Hisx6 tag from vector pcDNA3.1 at the intracellular C-terminus
T3 sequence (looked up): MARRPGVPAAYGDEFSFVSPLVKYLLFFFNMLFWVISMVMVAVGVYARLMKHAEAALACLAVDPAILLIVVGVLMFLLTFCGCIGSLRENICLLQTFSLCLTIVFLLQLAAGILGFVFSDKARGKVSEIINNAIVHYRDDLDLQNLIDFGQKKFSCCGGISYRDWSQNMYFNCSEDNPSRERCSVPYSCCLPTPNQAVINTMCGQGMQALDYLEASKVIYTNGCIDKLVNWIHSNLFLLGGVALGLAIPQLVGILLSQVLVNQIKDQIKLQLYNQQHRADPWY
Protocol: as §1

[4] = molecular target: T1, human penumbra protein (hpen); assay: immunofluorescence microscopy on live BaF3/hpen
[5] = molecular target: T3, mouse penumbra protein (mpen) fused to …; assay: indirect immunofluorescence microscopy on live BaF3/mpen
[6] = molecular target: T3, mouse penumbra protein (mpen) fused to …; assay: immunofluorescence microscopy on live BaF3/mpen

Measured: binding result

B1: mAb 29A6.2 (antibody, V domains shown)
VH: QVQLKQSGPGLVQPSQSLSITCTVSGFSLTSYGVHWVRQSPGKGLEWLGVIWSGGSTDYNAAFISRLSISKDNSKSQVFFKMNSLQADDTAIYYCATFDYWGQGTTLTVSS
VL: DIVITQDELSNPVTSGESVSISCRSSKSLLYKDGKTYLNWFLQRPGQSPQLLIYLMSTRASGVSDRFSGSGSGTDFTLEISRVKAEDVGVYYCQQLVEYPFTFGSGTKLEIKR
notes: Tested as hybridoma supernatant or as purified, FITC-conjugated antibody; also called 29A6.2-FITC; hybridoma 29A6.2
binds: [1] | [2] | [3]

B2: mAb 41B10.13 (antibody, V domains shown)
VH: QVQLKESGPGLVAPSQSLSITCTVSGFSLTSYAISWVRQPPGKGLEWLGVIWTGGGTNYNSALKSRLSISKDNSKSQVFLKMNSLQTDDTARYYCAREGNAYYSNYESTAYWGQGTLVTVSA
VL: DIVITQDELSNPVTSGESVSISCRSSKSLLYKDGKTYLNWFLQRPGQSPQLLIYLMSTRASGVSDRFSGSGSGTDFTLEISRVKAEDVGVYYCQQLVEYPFTFGSGTKLEIKR
notes: The first 19 amino acids of each entry are signal peptides and are left out; Tested as hybridoma supernatant or as purified, FITC-conjugated antibody; also called 41B10.13-FITC; 41B10-FITC
binds: [4] | [5] | [2]

B3: mAb 59E6.8 (antibody, V domains shown)
VH: QVQLQQPGAELVKPGASVKMSCKASGYTFTSYWITWVKQRPGQGLEWIGDIYPGSGSTNYNEKFKSKATLTVDTSSSTAYMQLSSLTSEDSAVYYCARDYYGSSYDYWGQGTTLTVSS
VL: DIVITQDELSNPVTSGESVSISCRSSKSLLYKDGKTYLNWFLQRPGQSPQLLIYLMSTRASGVSDRFSGSGSGTDFTLEISRVKAEDVGVYYCQQLVEYPFTFGSGTKLEIKR
notes: The first 19 amino acids of each entry are signal peptides and are left out; Tested as hybridoma supernatant or as purified, FITC-conjugated antibody; also called 59E6.8-FITC; anti-pen mAb
binds: [4] | [6] | [2]
